Laboratory results as given in patent US6512097.
Where two headings read alike, the source gives them in different places.

Tests used:
Assay in all cases: SPR BIAcore
[1] = target: T1, c-erbB-2 ECD with a Ser-Gly-His6 C-terminal fusion (UniProt P04626 23-652)
T1 construct: extracellular domain; Expressed from CHO cells, IMAC purified; coupled to a CM5 chip, coated on plates, or biotinylated with NHS-LC-biotin; also called c-erbB-2 extracellular domain; biotinylated c-erbB-2 ECD
Procedure: All assays were performed in triplicate. Briefly, […] of radioiodinated sFv was added to 5×10^6 SK-OV cells in the presence of increasing concentrations of unlabeled sFv from the same preparation. After a 30 minute incubation at 20° C., the samples were washed with PBS at 4° C. and centrifuged at 500 g. The amount of labeled sFv bound to the cells was determined by counting the pellets in a gamma counter and the K_a, and K_d were calculated using the EBDA program (V 2.0, G. A. McPherson, 1983). The K_d of all the other isolated sFv were determined using surface plasmon resonance in a BIAcore (Pharmacia). In a BIAcore flow cell, approximately 1400 resonance units (RU) of c-erbB-2 ECD (25 μg/ml in 10 mM sodium acetate, pH 4.5) was coupled to a CM5 sensor chip (Johnsson et al. (1991), supra). Association and dissociation-rates were measured under continuous flow of […] using a concentration range from 50 to 800 nM. Rate constant $kon$ was determined from a plot of (1(dR/dt))/t vs concentration (Karlsson et al. (1991), supra). Rate constant $Hoff$ was determined from the dissociation part of the sensorgram at the highest concentration of sFv analyzed.
Dashes indicate sequence identity. Mutations arising from PCR error and located outside V_H CDR3 are listed under the heading other mutations. F = frequency of isolated scFv. *$koff$ determined from unpurified scFv samples. Underline indicates mutated residue.

[2] = target: T1, c-erbB-2 ECD with a Ser-Gly-His6 …; remark: listed apart in the source
[3] = target: T1, c-erbB-2 ECD with a Ser-Gly-His6 …; remark: listed apart in the source
[4] = target: T1, c-erbB-2 ECD with a Ser-Gly-His6 …; remark: listed apart in the source

B1: C6MH3-B1 (scFv)
scFv: QVQLLQSGAELKKPGESLKISCKGSGYSFTSYWIAWVRQMPGKGLEYMGLIYPGDSDTKYSPSFQGQVTISVDKSVSTAYLQWSSLKPSDSAVYFCARHDVGYCTDRTCAKWPEYFQHWGQGTLVTVSSGGGGSGGGGSGGGGSQSVLTQPPSVSAAPGQKVTISCSGSSSNIGNNYVSWYQQLPGTAPKLLIYGHTNRPAGVPDRFSGSKSGTSASLAISGFRSEDEADYYCASWDYTLSGWVFGGGTKLTVLG
notes: C6ML3-9 sFv, VH CDR3 library B mutant; also called CH3-B1
[1]
  Kd: 0.16 nM
  koff: 6.7e-05 s⁻¹
[2]
  Kd: 0.12 nM
  koff: 6e-05 s⁻¹
  t1/2 calculated from koff: 2.25 h

B2: C6ML3-23 (scFv)
scFv: QVQLLQSGAELKKPGESLKISCKGSGYSFTSYWIAWVRQMPGKGLEYMGLIYPGDSDTKYSPSFQGQVTISVDKSVSTAYLQWSSLKPSDSAVYFCARHDVGYCSSSNCAKWPEYFQHWGQGTLVTVSSGGGGSGGGGSGGGGSQSVLTQPPSVSAAPGQKVTISCSGSSSNIGNNYVSWYQQLPGTAPKLLIYGHTNRPAGVPDRFSGSKSGTSASLAISGFRSEDEADYYCASWDHSLWGWVFGGGTKLTVLG
[3]
  Kd: 1.5 nM
  koff: 0.0017 s⁻¹
[4]
  Kd: 1.5 nM
  koff: 0.001 s⁻¹

B3: C6ML3-3 (scFv)
scFv: QVQLLQSGAELKKPGESLKISCKGSGYSFTSYWIAWVRQMPGKGLEYMGLIYPGDSDTKYSPSFQGQVTISVDKSVSTAYLQWSSLKPSDSAVYFCARHDVGYCSSSNCAKWPEYFQHWGQGTLVTVSSGGGGSGGGGSGGGGSQSVLTQPPSVSAAPGQKVTISCSGSSSNIGNNYVSWYQQLPGTAPKLLIYGHTNRPAGVPDRFSGSKSGTSASLAISGFRSEDEADYYCATWDYALSGWVFGGGTKLTVLG
[3]
  Kd: 4.3 nM
  koff: 0.002 s⁻¹

B4: C6ML3-14 (scFv)
scFv: QVQLLQSGAELKKPGESLKISCKGSGYSFTSYWIAWVRQMPGKGLEYMGLIYPGDSDTKYSPSFQGQVTISVDKSVSTAYLQWSSLKPSDSAVYFCARHDVGYCSSSNCAKWPEYFQHWGQGTLVTVSSGGGGSGGGGSGGGGSQSVLTQPPSVSAAPGQKVTISCSGSSSNIGNNYVSWYQQLPGTAPKLLIYGHTNRPAGVPDRFSGSKSGTSASLAISGFRSEDEADYYCAAWDDPLWGWVFGGGTKLTVLG
[3]
  Kd: 1 nM
  koff: 0.00077 s⁻¹
[4]
  Kd: 1.1 nM
  koff: 0.00076 s⁻¹

B5: C6ML3-5 (scFv)
scFv: QVQLLQSGAELKKPGESLKISCKGSGYSFTSYWIAWVRQMPGKGLEYMGLIYPGDSDTKYSPSFQGQVTISVDKSVSTAYLQWSSLKPSDSAVYFCARHDVGYCSSSNCAKWPEYFQHWGQGTLVTVSSGGGGSGGGGSGGGGSQSVLTQPPSVSAAPGQKVTISCSGSSSNIGNNYVSWYQQLPGTAPKLLIYGHTNRPAGVPDRFSGSKSGTSASLAISGFRSEDEADYYCAAWDYSLSGWVFGGGTKLTVLG
[3]
  Kd: 3.2 nM
[4]
  Kd: 3.7 nM

B6: C6ML3-8 (scFv)
scFv: QVQLLQSGAELKKPGESLKISCKGSGYSFTSYWIAWVRQMPGKGLEYMGLIYPGDSDTKYSPSFQGQVTISVDKSVSTAYLQWSSLKPSDSAVYFCARHDVGYCSSSNCAKWPEYFQHWGQGTLVTVSSGGGGSGGGGSGGGGSQSVLTQPPSVSAAPGQKVTISCSGSSSNIGNNYVSWYQQLPGTAPKLLIYGHTNRPAGVPDRFSGSKSGTSASLAISGFRSEDEADYYCAAWDHLRWGWVFGGGTKLTVLG
[3]
  Kd: 2.6 nM
  koff: 0.0017 s⁻¹

B7: C6ML3-7 (scFv)
scFv: QVQLLQSGAELKKPGESLKISCKGSGYSFTSYWIAWVRQMPGKGLEYMGLIYPGDSDTKYSPSFQGQVTISVDKSVSTAYLQWSSLKPSDSAVYFCARHDVGYCSSSNCAKWPEYFQHWGQGTLVTVSSGGGGSGGGGSGGGGSQSVLTQPPSVSAAPGQKVTISCSGSSSNIGNNYVSWYQQLPGTAPKLLIYGHTNRPAGVPDRFSGSKSGTSASLAISGFRSEDEADYYCAAWDYAVSGWVFGGGTKLTVLG
[3]
  Kd: 2.6 nM
  koff: 0.0017 s⁻¹
[4]
  Kd: 2.6 nM
  koff: 0.0017 s⁻¹

B8: C6ML3-2 (scFv)
scFv: QVQLLQSGAELKKPGESLKISCKGSGYSFTSYWIAWVRQMPGKGLEYMGLIYPGDSDTKYSPSFQGQVTISVDKSVSTAYLQWSSLKPSDSAVYFCARHDVGYCSSSNCAKWPEYFQHWGQGTLVTVSSGGGGSGGGGSGGGGSQSVLTQPPSVSAAPGQKVTISCSGSSSNIGNNYVSWYQQLPGTAPKLLIYGHTNRPAGVPDRFSGSKSGTSASLAISGFRSEDEADYYCAAWDHSLSGWVFGGGTKLTVLG
[3]
  Kd: 2.8 nM
  koff: 0.002 s⁻¹

B9: C6ML3-29 (scFv)
scFv: QVQLLQSGAELKKPGESLKISCKGSGYSFTSYWIAWVRQMPGKGLEYMGLIYPGDSDTKYSPSFQGQVTISVDKSVSTAYLQWSSLKPSDSAVYFCARHDVGYCSSSNCAKWPEYFQHWGQGTLVTVSSGGGGSGGGGSGGGGSQSVLTQPPSVSAAPGQKVTISCSGSSSNIGNNYVSWYQQLPGTAPKLLIYGHTNRPAGVPDRFSGSKSGTSASLAISGFRSEDEADYYCAAWDGTLWGWVFGGGTKLTVLG
[3]
  Kd: 2.7 nM
  koff: 0.0022 s⁻¹
[4]
  Kd: 1.7 nM
  koff: 0.0022 s⁻¹

B10: C6ML3-6 (scFv)
scFv: QVQLLQSGAELKKPGESLKISCKGSGYSFTSYWIAWVRQMPGKGLEYMGLIYPGDSDTKYSPSFQGQVTISVDKSVSTAYLQWSSLKPSDSAVYFCARHDVGYCSSSNCAKWPEYFQHWGQGTLVTVSSGGGGSGGGGSGGGGSQSVLTQPPSVSAAPGQKVTISCSGSSSNIGNNYVSWYQQLPGTAPKLLIYGHTNRPAGVPDRFSGSKSGTSASLAISGFRSEDEADYYCASWDYSLSGWVFGGGTKLTVLG
[3]
  Kd: 3.2 nM
  koff: 0.0019 s⁻¹
[4]
  Kd: 3.2 nM
  koff: 0.0019 s⁻¹

B11: C6ML3-11 (scFv)
scFv: QVQLLQSGAELKKPGESLKISCKGSGYSFTSYWIAWVRQMPGKGLEYMGLIYPGDSDTKYSPSFQGQVTISVDKSVSTAYLQWSSLKPSDSAVYFCARHDVGYCSSSNCAKWPEYFQHWGQGTLVTVSSGGGGSGGGGSGGGGSQSVLTQPPSVSAAPGQKVTISCSGSSSNIGNNYVSWYQQLPGTAPKLLIYGHTNRPAGVPDRFSGSKSGTSASLAISGFRSEDEADYYCAAWDYALWGWVFGGGTKLTVLG
[3]
  Kd: 3.6 nM
  koff: 0.0022 s⁻¹

B12: C6ML3-15 (scFv)
scFv: QVQLLQSGAELKKPGESLKISCKGSGYSFTSYWIAWVRQMPGKGLEYMGLIYPGDSDTKYSPSFQGQVTISVDKSVSTAYLQWSSLKPSDSAVYFCARHDVGYCSSSNCAKWPEYFQHWGQGTLVTVSSGGGGSGGGGSGGGGSQSVLTQPPSVSAAPGQKVTISCSGSSSNIGNNYVSWYQQLPGTAPKLLIYGHTNRPAGVPDRFSGSKSGTSASLAISGFRSEDEADYYCAAWDRPLWGWVFGGGTKLTVLG
notes: also called C6M13-15
[3]
  Kd: 2.2 nM
[4]
  Kd: 2.2 nM

B13: C6ML3-4 (scFv)
scFv: QVQLLQSGAELKKPGESLKISCKGSGYSFTSYWIAWVRQMPGKGLEYMGLIYPGDSDTKYSPSFQGQVTISVDKSVSTAYLQWSSLKPSDSAVYFCARHDVGYCSSSNCAKWPEYFQHWGQGTLVTVSSGGGGSGGGGSGGGGSQSVLTQPPSVSAAPGQKVTISCSGSSSNIGNNYVSWYQQLPGTAPKLLIYGHTNRPAGVPDRFSGSKSGTSASLAISGFRSEDEADYYCASWEYSLWGWVFGGGTKLTVLG
[3]
  Kd: 3.5 nM
  koff: 0.0014 s⁻¹

B14: C6ML3-13 (scFv)
scFv: QVQLLQSGAELKKPGESLKISCKGSGYSFTSYWIAWVRQMPGKGLEYMGLIYPGDSDTKYSPSFQGQVTISVDKSVSTAYLQWSSLKPSDSAVYFCARHDVGYCSSSNCAKWPEYFQHWGQGTLVTVSSGGGGSGGGGSGGGGSQSVLTQPPSVSAAPGQKVTISCSGSSSNIGNNYVSWYQQLPGTAPKLLIYGHTNRPAGVPDRFSGSKSGTSASLAISGFRSEDEADYYCAAWDATLWGWVFGGGTKLTVLG
[3]
  Kd: 2.4 nM
  koff: 0.0021 s⁻¹

B15: C6ML3-12 (scFv)
scFv: QVQLLQSGAELKKPGESLKISCKGSGYSFTSYWIAWVRQMPGKGLEYMGLIYPGDSDTKYSPSFQGQVTISVDKSVSTAYLQWSSLKPSDSAVYFCARHDVGYCSSSNCAKWPEYFQHWGQGTLVTVSSGGGGSGGGGSGGGGSQSVLTQPPSVSAAPGQKVTISCSGSSSNIGNNYVSWYQQLPGTAPKLLIYGHTNRPAGVPDRFSGSKSGTSASLAISGFRSEDEADYYCAAWDYSRSGWVFGGGTKLTVLG
notes: also called CML-3-12
[3]
  Kd: 1.6 nM
  koff: 0.00072 s⁻¹
[4]
  Kd: 1.6 nM
  koff: 0.00072 s⁻¹

B16: C6ML3-19 (scFv)
scFv: QVQLLQSGAELKKPGESLKISCKGSGYSFTSYWIAWVRQMPGKGLEYMGLIYPGDSDTKYSPSFQGQVTISVDKSVSTAYLQWSSLKPSDSAVYFCARHDVGYCSSSNCAKWPEYFQHWGQGTLVTVSSGGGGSGGGGSGGGGSQSVLTQPPSVSAAPGQKVTISCSGSSSNIGNNYVSWYQQLPGTAPKLLIYGHTNRPAGVPDRFSGSKSGTSASLAISGFRSEDEADYYCASWDRPLWGWVFGGGTKLTVLG
[3]
  Kd: 1.5 nM
  koff: 0.001 s⁻¹
[4]
  Kd: 1.5 nM
  koff: 0.001 s⁻¹
